Molecular target: T1, 6His-GST-URT1 (Arabidopsis thaliana, UniProt O64642 1-764)
T1 construct: URT1, Arabidopsis thaliana, AT2G45620, 764 amino acids; amplified from cDNA; Plasmids in Supplementary Data 7; expression and purification in Supplementary Methods; source: E. coli BL21 DE3, purified; not shown: 6His, N-terminal, kept; GST, N-terminal, kept
T1 sequence (looked up): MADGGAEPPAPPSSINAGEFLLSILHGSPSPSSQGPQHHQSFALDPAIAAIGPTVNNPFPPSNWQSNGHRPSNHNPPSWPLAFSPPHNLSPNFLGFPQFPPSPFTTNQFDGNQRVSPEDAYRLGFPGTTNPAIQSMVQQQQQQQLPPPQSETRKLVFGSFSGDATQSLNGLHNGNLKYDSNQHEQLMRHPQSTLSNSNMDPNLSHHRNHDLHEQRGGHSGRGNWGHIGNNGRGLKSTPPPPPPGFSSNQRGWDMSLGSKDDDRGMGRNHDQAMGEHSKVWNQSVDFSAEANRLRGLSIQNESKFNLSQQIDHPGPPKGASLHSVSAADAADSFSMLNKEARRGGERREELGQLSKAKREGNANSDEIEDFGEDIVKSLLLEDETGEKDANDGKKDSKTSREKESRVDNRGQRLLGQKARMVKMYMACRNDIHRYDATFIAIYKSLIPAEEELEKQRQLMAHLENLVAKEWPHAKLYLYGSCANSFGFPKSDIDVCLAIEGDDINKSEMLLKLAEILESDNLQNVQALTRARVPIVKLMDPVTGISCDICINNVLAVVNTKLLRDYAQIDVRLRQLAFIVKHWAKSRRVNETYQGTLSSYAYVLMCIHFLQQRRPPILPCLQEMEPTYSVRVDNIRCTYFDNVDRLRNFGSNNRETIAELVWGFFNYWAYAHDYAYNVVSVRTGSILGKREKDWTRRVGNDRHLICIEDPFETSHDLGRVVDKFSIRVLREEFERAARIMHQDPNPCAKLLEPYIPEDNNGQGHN
Experiment: pull-down; GST pull-down on glutathione sepharose; 10 pmol of each purified protein in 500 µl of 20 mM MOPS pH 7.2, 100 mM KCl, 15% glycerol, 0.1% Tween 20 with 100 ng/µl RNase A, 4 °C; SDS-PAGE, SYPRO Ruby
Details: both partners purified

B1: 6His-MBP-DCP5 (natural protein, Arabidopsis thaliana, UniProt Q9C658 1-611, looked up)
chain: MAADNTGSKSSSAADSYVGSLISLTSKSEIRYEGILYNINTDESSIGLQNVRSFGTEGRKKDGPQVPPSDKVYEYILFRGTDIKDLQVKASPPVQPPASTINNDPAIIQSHYPSPMPTSGSLPSTASGSLPDISSHNGQPGQHGMGFQNAMPLYQPGGNLGSWGASPQPPMYWQGFYTPPPNGLPQLHQQSLIRPPHGLPMPNSLQQPLQYPNFNTPPPPTGSSSLQGSSLPEAPSSLFPFSTSSQMLAPSSLPFPGLPPVTLSSSLQSTLQSAPSPSLASEMAPPLLSNKAPITAPPTLPQDTNLLSFSLSTTRATEASTGLPLSNKPSVVTGPISPPQTTPLTSAPVAGVSSSISQDKPKPLLVTPGQLLQSGSSAVSLSPPSTNADKDVEVVQVSSSAGLEQSVPVTSEAQPPILPLPSSARPTQKPNGHSFPNHNGYRGRGRGRGRGAGRSHQVMKFTEDFDFTAMNEKFNKDEVWGHLGKSTTLDGDEDDDSPTVDEAELPKIEAKPVYNKDDFFDSLSSNTIDRESQNSRPRFSEQRKLDTETFGEFSRFRGGRGGRGGYGRNNGYSRGGYGGRGYGGYGGRGGGGGGYGYGGRGQGRGVSNRTT
notes: DECAPPING 5 (DCP5), Arabidopsis thaliana, AT1G26110; amplified from cDNA; source: E. coli BL21 DE3, purified; not shown: 6His, N-terminal, kept; MBP, N-terminal, kept
binding result: binds
